For the test, the target named is Aβ40-S26C (synthetic human Aβ1-40 in which Ser26 was changed to cysteine) (human). The experiment in a line: SEC. For orientation: Size exclusion chromatography separates by hydrodynamic size, large species first.

In turn, “Aβ40-S26C (synthetic human Aβ1-40 in which Ser26 was changed to cysteine) (peptide)” had a stoichiometry N of 2.

As a reminder, the stoichiometry N is a count of units in the complex or per binding partner.

The values are drawn from PMC3604133.
